In PMC10616141 one finds response data, which are given here for five molecules.

In the experiment the target is Orai1-CFP, Q96D31. Put plainly: E-FRET in cells (Orai1-CFP / STIM1-YFP). Particulars: chain shown with the change, HEK-S1S2dKO-O1CFP cells, store-depletion with 2.5 µM ionomycin, parent: est. 0.11, read off a plot.
Chain of Orai1-CFP, Q96D31 (Q96D31 whole entry): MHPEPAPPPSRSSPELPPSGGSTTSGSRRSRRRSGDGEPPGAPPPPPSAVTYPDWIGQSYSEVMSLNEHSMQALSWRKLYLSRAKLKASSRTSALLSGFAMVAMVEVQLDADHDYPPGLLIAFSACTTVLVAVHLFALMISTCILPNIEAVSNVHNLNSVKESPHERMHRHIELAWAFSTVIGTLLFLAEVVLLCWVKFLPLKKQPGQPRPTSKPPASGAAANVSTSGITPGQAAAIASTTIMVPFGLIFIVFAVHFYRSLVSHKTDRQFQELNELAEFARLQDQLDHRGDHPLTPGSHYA

B1: STIM1-YFP-WT, Q13586 F394del (protein)
chain: LSHSHSEKATGTSSGANSEESTAAEFCRIDKPLCHSEDEKLSFEAVRNIHKLMDDDANGDVDVEESDEFLREDLNYHDPTVKHSTFHGEDKLISVEDLWKAWKSSEVYNWTVDEVVQWLITYVELPQYEETFRKLQLSGHAMPRLAVTNTTMTGTVLKMTDRSHRQKLQLKALDTVLFGPPLLTRHNHLKDFMLVVSIVIGVGGCWFAYIQNRYSKEHMKKMMKDLEGLHRAEQSLHDLQERLHKAQEEHRTVEVEKVHLEKKLRDEINLAKQEAQRLKELREGTENERSRQKYAEEELEQVREALRKAEKELESHSSWYAPEALQKWLQLTHEVEVQYYNIKKQNAEKQLLVAKEGAEKIKKKRNTLFGTHVAHSSSLDDVDHKILTAKQALSEVTAALRERLHRWQQIEILCGFQIVNNPGIHSLVAALNIDPSWMGSTRPNPAHFIMTDDVDDMDEEIVSPLSMQSPSLQSSVRQRLTEPQHGLGSQRDLTHSDSESSLHMSDRQRVAPKPPQMSRAADEALNAMTSNGSHRLIEGVHPGSLVEKLPDSPALAKKALLALNHGLDKAHSLMELSPSAPPGGSPHLDSSRSHSPSSPDPDTPSPVGDSRALQASRNTRIPHLAGKKAVAEEDNGSIGEETDSSPGRKKFPLKIFKKPLKK
Regarding B1, under “n = 106 (WT n = 579)”, the response stood at 0.003.

B2: STIM1-YFP-WT, Q13586 H395del (protein)
chain: LSHSHSEKATGTSSGANSEESTAAEFCRIDKPLCHSEDEKLSFEAVRNIHKLMDDDANGDVDVEESDEFLREDLNYHDPTVKHSTFHGEDKLISVEDLWKAWKSSEVYNWTVDEVVQWLITYVELPQYEETFRKLQLSGHAMPRLAVTNTTMTGTVLKMTDRSHRQKLQLKALDTVLFGPPLLTRHNHLKDFMLVVSIVIGVGGCWFAYIQNRYSKEHMKKMMKDLEGLHRAEQSLHDLQERLHKAQEEHRTVEVEKVHLEKKLRDEINLAKQEAQRLKELREGTENERSRQKYAEEELEQVREALRKAEKELESHSSWYAPEALQKWLQLTHEVEVQYYNIKKQNAEKQLLVAKEGAEKIKKKRNTLFGTFVAHSSSLDDVDHKILTAKQALSEVTAALRERLHRWQQIEILCGFQIVNNPGIHSLVAALNIDPSWMGSTRPNPAHFIMTDDVDDMDEEIVSPLSMQSPSLQSSVRQRLTEPQHGLGSQRDLTHSDSESSLHMSDRQRVAPKPPQMSRAADEALNAMTSNGSHRLIEGVHPGSLVEKLPDSPALAKKALLALNHGLDKAHSLMELSPSAPPGGSPHLDSSRSHSPSSPDPDTPSPVGDSRALQASRNTRIPHLAGKKAVAEEDNGSIGEETDSSPGRKKFPLKIFKKPLKK
Turning to B2, the response (n = 207 (WT n = 579)) is 0.082.

B3: STIM1-YFP-WT, Q13586 H398del (protein)
chain: LSHSHSEKATGTSSGANSEESTAAEFCRIDKPLCHSEDEKLSFEAVRNIHKLMDDDANGDVDVEESDEFLREDLNYHDPTVKHSTFHGEDKLISVEDLWKAWKSSEVYNWTVDEVVQWLITYVELPQYEETFRKLQLSGHAMPRLAVTNTTMTGTVLKMTDRSHRQKLQLKALDTVLFGPPLLTRHNHLKDFMLVVSIVIGVGGCWFAYIQNRYSKEHMKKMMKDLEGLHRAEQSLHDLQERLHKAQEEHRTVEVEKVHLEKKLRDEINLAKQEAQRLKELREGTENERSRQKYAEEELEQVREALRKAEKELESHSSWYAPEALQKWLQLTHEVEVQYYNIKKQNAEKQLLVAKEGAEKIKKKRNTLFGTFHVASSSLDDVDHKILTAKQALSEVTAALRERLHRWQQIEILCGFQIVNNPGIHSLVAALNIDPSWMGSTRPNPAHFIMTDDVDDMDEEIVSPLSMQSPSLQSSVRQRLTEPQHGLGSQRDLTHSDSESSLHMSDRQRVAPKPPQMSRAADEALNAMTSNGSHRLIEGVHPGSLVEKLPDSPALAKKALLALNHGLDKAHSLMELSPSAPPGGSPHLDSSRSHSPSSPDPDTPSPVGDSRALQASRNTRIPHLAGKKAVAEEDNGSIGEETDSSPGRKKFPLKIFKKPLKK
In the case of B3, the response (n = 100 (WT n = 579)) was 0.07.

B4: STIM1-YFP-WT, Q13586 H395del; V396del (protein)
chain: LSHSHSEKATGTSSGANSEESTAAEFCRIDKPLCHSEDEKLSFEAVRNIHKLMDDDANGDVDVEESDEFLREDLNYHDPTVKHSTFHGEDKLISVEDLWKAWKSSEVYNWTVDEVVQWLITYVELPQYEETFRKLQLSGHAMPRLAVTNTTMTGTVLKMTDRSHRQKLQLKALDTVLFGPPLLTRHNHLKDFMLVVSIVIGVGGCWFAYIQNRYSKEHMKKMMKDLEGLHRAEQSLHDLQERLHKAQEEHRTVEVEKVHLEKKLRDEINLAKQEAQRLKELREGTENERSRQKYAEEELEQVREALRKAEKELESHSSWYAPEALQKWLQLTHEVEVQYYNIKKQNAEKQLLVAKEGAEKIKKKRNTLFGTFAHSSSLDDVDHKILTAKQALSEVTAALRERLHRWQQIEILCGFQIVNNPGIHSLVAALNIDPSWMGSTRPNPAHFIMTDDVDDMDEEIVSPLSMQSPSLQSSVRQRLTEPQHGLGSQRDLTHSDSESSLHMSDRQRVAPKPPQMSRAADEALNAMTSNGSHRLIEGVHPGSLVEKLPDSPALAKKALLALNHGLDKAHSLMELSPSAPPGGSPHLDSSRSHSPSSPDPDTPSPVGDSRALQASRNTRIPHLAGKKAVAEEDNGSIGEETDSSPGRKKFPLKIFKKPLKK
For B4, the response (n = 87 (WT n = 579)) worked out at 0.074.

B5: STIM1-YFP-WT, Q13586 V396del; A397del (protein)
chain: LSHSHSEKATGTSSGANSEESTAAEFCRIDKPLCHSEDEKLSFEAVRNIHKLMDDDANGDVDVEESDEFLREDLNYHDPTVKHSTFHGEDKLISVEDLWKAWKSSEVYNWTVDEVVQWLITYVELPQYEETFRKLQLSGHAMPRLAVTNTTMTGTVLKMTDRSHRQKLQLKALDTVLFGPPLLTRHNHLKDFMLVVSIVIGVGGCWFAYIQNRYSKEHMKKMMKDLEGLHRAEQSLHDLQERLHKAQEEHRTVEVEKVHLEKKLRDEINLAKQEAQRLKELREGTENERSRQKYAEEELEQVREALRKAEKELESHSSWYAPEALQKWLQLTHEVEVQYYNIKKQNAEKQLLVAKEGAEKIKKKRNTLFGTFHHSSSLDDVDHKILTAKQALSEVTAALRERLHRWQQIEILCGFQIVNNPGIHSLVAALNIDPSWMGSTRPNPAHFIMTDDVDDMDEEIVSPLSMQSPSLQSSVRQRLTEPQHGLGSQRDLTHSDSESSLHMSDRQRVAPKPPQMSRAADEALNAMTSNGSHRLIEGVHPGSLVEKLPDSPALAKKALLALNHGLDKAHSLMELSPSAPPGGSPHLDSSRSHSPSSPDPDTPSPVGDSRALQASRNTRIPHLAGKKAVAEEDNGSIGEETDSSPGRKKFPLKIFKKPLKK
Turning to B5, for the setting “n = 107 (WT n = 579)”, the response worked out at 0.034.
